Reference: publication PMC7954794, “Protein context shapes the specificity of SH3 domain-mediated interactions in vivo” (Nature Communications, 2021)

Tested on: Abp1 PPIs
Experiment: DHFR-PCA of Abp1 SH3-swapped baits (Fig. 2B-D, S2C, S2F);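 for Protein-protein interaction distance between Abp1 SH3-swapped baits, to ABP1: Euclidean distance between DHFR-PCA score profiles of the baits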;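 for Protein-protein interaction distance between Abp1 SH3-swapped baits, to BEM1-2: Euclidean distance between DHFR-PCA score profiles of the baits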;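 for Protein-protein interaction distance between Abp1 SH3-swapped baits, to BOI1: Euclidean distance between DHFR-PCA score profiles of the baits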;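 for Protein-protein interaction distance between Abp1 SH3-swapped baits, to BZZ1-1: Euclidean distance between DHFR-PCA score profiles of the baits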
Format: cell-based, Saccharomyces cerevisiae
Method in brief: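 Interactions were scored by DHFR protein-fragment complementation. DHFR F[1,2]-tagged Abp1 strains, whose SH3 was swapped for yeast or human ortholog domains, were crossed on YPD at 30 °C for 48 h with a 1536-format array of 575 prey-DHFR F[3] strains and 40 negatives, giving four replicates per pair. PCA selection lasted 4 days after double diploid selection.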

[1] = number of PPIs, difference, Abp1 SH3-swapped with the listed SH3, Fig2D,S2F

B1: PEX13 (protein, UniProt P80667 1-386, looked up)
Peroxisomal membrane protein …: MSSTAVPRPKPWETSASLEEPQRNAQSLSAMMTSNQQDSRPTEESNNSNSASESAPEVLPRPAALNSSGTYGESNTIPGIYGNSNYGIPYDNNPYSMNSIYGNSIGRYGYGGSYYGNNYGSFYGGGYGAGAGYGMNNGSGLGESTKATFQLIESLIGAVTGFAQMLESTYMATHNSFFTMISVAEQFGNLKEMLGSFFGIFAIMKFLKKILYRATKGRLGIPPKNFAESEGSKNKLIEDFQKFNDSGTINSNEKATRRKISWKPLLFFLMAVFGFPYLLNKFITKLQTSGTIRASQGNGSEPIDPSKLEFARALYDFVPENPEMEVALKKGDLMAILSKKDPLGRDSDWWKVRTKNGNIGYIPYNYIEIIKRRKKIEHVDDETRTH
Protein-protein interaction distance between Abp1 SH3-swapped baits, to ABP1 (Abp1 bait with swapped SH3, distance to bait with ABP1 SH3, sheet Fig2C): 10.96 | Protein-protein interaction distance between Abp1 SH3-swapped baits, to BBC1 (distance to Abp1 bait with BBC1 SH3, sheet Fig2C): 10.86 | Protein-protein interaction distance between Abp1 SH3-swapped baits, to BEM1-1 (distance to Abp1 bait with BEM1-1 SH3, sheet Fig2C): 16.62 | Protein-protein interaction distance between Abp1 SH3-swapped baits, to BEM1-2 (distance to Abp1 bait with BEM1-2 SH3, sheet Fig2C): 35.19 | Protein-protein interaction distance between Abp1 SH3-swapped baits, to BOI1 (distance to Abp1 bait with BOI1 SH3, sheet Fig2C): 13.22 | Protein-protein interaction distance between Abp1 SH3-swapped baits, to BOI2 (distance to Abp1 bait with BOI2 SH3, sheet Fig2C): 16.99 | Protein-protein interaction distance between Abp1 SH3-swapped baits, to BUD14 (distance to Abp1 bait with BUD14 SH3, sheet Fig2C): 19.91 | Protein-protein interaction distance between Abp1 SH3-swapped baits, to BZZ1-1 (distance to Abp1 bait with BZZ1-1 SH3, sheet Fig2C): 7.297 | Protein-protein interaction distance between Abp1 SH3-swapped baits, to BZZ1-2 (distance to Abp1 bait with BZZ1-2 SH3, sheet Fig2C): 13.09 | Protein-protein interaction distance between Abp1 SH3-swapped baits, to CDC25 (distance to Abp1 bait with CDC25 SH3, sheet Fig2C): 29.16 | Protein-protein interaction distance between Abp1 SH3-swapped baits, to CTTN (distance to Abp1 bait with CTTN SH3, sheet Fig2C): 14.16 | Protein-protein interaction distance between Abp1 SH3-swapped baits, to CYK3 (distance to Abp1 bait with CYK3 SH3, sheet Fig2C): 29.86 | Protein-protein interaction distance between Abp1 SH3-swapped baits, to DBNL (distance to Abp1 bait with DBNL SH3, sheet Fig2C): 7.699 | Protein-protein interaction distance between Abp1 SH3-swapped baits, to FUS1 (distance to Abp1 bait with FUS1 SH3, sheet Fig2C): 21.37 | Protein-protein interaction distance between Abp1 SH3-swapped baits, to HCLS1 (distance to Abp1 bait with HCLS1 SH3, sheet Fig2C): 8.5 | Protein-protein interaction distance between Abp1 SH3-swapped baits, to HOF1 (distance to Abp1 bait with HOF1 SH3, sheet Fig2C): 33.79 | Protein-protein interaction distance between Abp1 SH3-swapped baits, to HSE1 (distance to Abp1 bait with HSE1 SH3, sheet Fig2C): 8.715 | Protein-protein interaction distance between Abp1 SH3-swapped baits, to LSB1 (distance to Abp1 bait with LSB1 SH3, sheet Fig2C): 6.728 | Protein-protein interaction distance between Abp1 SH3-swapped baits, to LSB3 (distance to Abp1 bait with LSB3 SH3, sheet Fig2C): 7.361 | Protein-protein interaction distance between Abp1 SH3-swapped baits, to MYO3 (distance to Abp1 bait with MYO3 SH3, sheet Fig2C): 8.874 | Protein-protein interaction distance between Abp1 SH3-swapped baits, to MYO5 (distance to Abp1 bait with MYO5 SH3, sheet Fig2C): 7.969 | Protein-protein interaction distance between Abp1 SH3-swapped baits, to NBP2 (distance to Abp1 bait with NBP2 SH3, sheet Fig2C): 19.13 | Protein-protein interaction distance between Abp1 SH3-swapped baits, to PEX13 (distance to Abp1 bait with PEX13 SH3, sheet Fig2C): 0.00 | Protein-protein interaction distance between Abp1 SH3-swapped baits, to PIN3 (distance to Abp1 bait with PIN3 SH3, sheet Fig2C): 5.433 | Protein-protein interaction distance between Abp1 SH3-swapped baits, to RVS167 (distance to Abp1 bait with RVS167 SH3, sheet Fig2C): 4.587 | Protein-protein interaction distance between Abp1 SH3-swapped baits, to SDC25 (distance to Abp1 bait with SDC25 SH3, sheet Fig2C): 35.86 | Protein-protein interaction distance between Abp1 SH3-swapped baits, to SHO1 (distance to Abp1 bait with SHO1 SH3, sheet Fig2C): 8.672 | Protein-protein interaction distance between Abp1 SH3-swapped baits, to SLA1-1 (distance to Abp1 bait with SLA1-1 SH3, sheet Fig2C): 31.78 | Protein-protein interaction distance between Abp1 SH3-swapped baits, to SLA1-2 (distance to Abp1 bait with SLA1-2 SH3, sheet Fig2C): 21.86 | Protein-protein interaction distance between Abp1 SH3-swapped baits, to SLA1-3 (distance to Abp1 bait with SLA1-3 SH3, sheet Fig2C): 6.985 | Protein-protein interaction distance between Abp1 SH3-swapped baits, to YSC84 (distance to Abp1 bait with YSC84 SH3, sheet Fig2C): 7.848 | PPIs gained by Abp1 - SH3-dependent PPIs gained by Abp1 [1]: 23 | SH3-dependent PPIs - SH3-dependent PPIs gained by Abp1 [1]: 0 | SH3-dependent PPIs gained by Abp1 (number of PPIs, Abp1 SH3-swapped with the listed SH3, DHFR-PCA, Fig2D,S2F): 1
